Publication PMC9248843, “Structural and biophysical studies of new L-asparaginase variants: lessons from random mutagenesis of the prototypic Escherichia coli Ntn-amidohydrolase” (Acta Crystallographica. Section D, Structural Biology, 2022)

T1: EcAIII α subunit (∼20 kDa) (Escherichia coli, UniProt P37595 1-178)
T1 construct: EcAIII of Escherichia coli, α subunit: cut product of the precursor up to the scissile bond Gly178-Thr179; the linker is partly degraded, residues 158-178 are not visible in the structures; also called subunit α; source: E. coli BL21 Gold, purified (DEAE-Sepharose, SEC); formed by autocleavage of the precursor
T1 sequence (looked up): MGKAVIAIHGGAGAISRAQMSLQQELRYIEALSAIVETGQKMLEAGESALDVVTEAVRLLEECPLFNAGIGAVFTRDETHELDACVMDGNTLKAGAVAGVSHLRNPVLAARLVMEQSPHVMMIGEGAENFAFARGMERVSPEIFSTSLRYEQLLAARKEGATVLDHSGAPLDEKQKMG


Tests used:
[1] = biological target: the molecule itself; experiment: crystal structure; hanging-drop vapor diffusion at 20°C; 20–30% PEG 4000 or PEG 6000, 0.2 M MgCl2, 100 mM Tris–HCl pH 8.5; protein 10–15 mg/ml; space group P212121
[2] = biological target: T1, EcAIII α subunit (∼20 kDa); experiment: as above; conditions: both partners purified

Row | Binder | binding result [2] | binding result [1]
1 | EcAIII variant RDM1-12, mature (processed into α/β subunits) (complex, Escherichia coli, EcAIII of Escherichia coli, α subunit: cut product up to the scissile bond Gly178-Thr179; residues 158-178 not visible in the structure; EcAIII of Escherichia coli, β subunit beginning at Thr179, with the substitutions of RDM1-12; source: E. coli BL21 Gold, purified (DEAE-Sepharose, SEC); copies: 2 + 2) chain 1: MGKAVIAIHGGAGAISRAQMSLQQELRYIEALSAIVETGQKMLEAGESALDVVTEAVRLLEECPLFNAGIGAVFTRDETHELDACVMDGNTLKAGAVAGVSHLRNPVLAARLVMEQSPHVMMIGEGAENFAFARGMERVSPEIFSTSLRYEQLLAARKEGATVLDHSGAPLDEKQKMG chain 2: TVGAVALDLDGNLAAATSTGGMTNKLPCTVGAAPLVGAGCYANNASVAVSCTGTGEVFIRALAAYDIAALMDYGGLSLAEACERVVMEKLPALGGSGGLIAIDHEGNVALPFNTEGMYRAWGYAGDTPTTGIYREKGDTVATQ | – | binds
2 | EcAIII variant RDM1-18, mature (processed into α/β subunits) (complex, Escherichia coli, EcAIII of Escherichia coli, α subunit: cut product up to the scissile bond Gly178-Thr179; residues 158-178 not visible in the structure; source: E. coli BL21 Gold, purified (DEAE-Sepharose, SEC); copies: 2 + 2) chain 1: MGKAVIAIHGGAGAISRAQMSLQQELRYIEALSAIVETGQKMLEAGESALDVVTEAVRLLEECPLFNAGIGAVFTRDETHELDACVMDGNTLKAGAVAGVSHLRNPVLAARLVMEQSPHVMMIGEGAENFAFARGMERVSPEIFSTSLRYEQLLAARKEGATVLDHSGAPLDEKQKMG chain 2: TVGAVALDLDGNLAAATSTGGMTNKLPGVVGPWPLVGAGCYANNASVAVSCTGTGEVFIRALAAYDIAALMDYGGLSLAEACERVVMEKLPALGGSGGLIAIDHEGNVALPFNTEGMYRAWGYAGDTPTTGIYREKGDTVATQ | – | binds
3 | EcAIII β subunit of variant RDM1-38 (domain or fragment, Escherichia coli, UniProt P37595 179-321, looked up, EcAIII of Escherichia coli, β subunit beginning at Thr179, with the substitutions of RDM1-38; also called RDM1-38 β subunit; source: E. coli BL21 Gold, purified (DEAE-Sepharose, SEC); formed by autocleavage of the precursor) TVGAVALDLDGNLAAATSTGGMTNKLPGCVGSVPLVGAGCYANNASVAVSCTGTGEVFIRALAAYDIAALMDYGGLSLAEACERVVMEKLPALGGSGGLIAIDHEGNVALPFNTEGMYRAWGYAGDTPTTGIYREKGDTVATQ | binds | –
4 | EcAIII β subunit of variant RDM1-18 (domain or fragment, Escherichia coli, UniProt P37595 179-321, looked up, also called RDM1-18 β subunit; source: E. coli BL21 Gold, purified (DEAE-Sepharose, SEC); formed by autocleavage of the precursor) TVGAVALDLDGNLAAATSTGGMTNKLPGVVGPWPLVGAGCYANNASVAVSCTGTGEVFIRALAAYDIAALMDYGGLSLAEACERVVMEKLPALGGSGGLIAIDHEGNVALPFNTEGMYRAWGYAGDTPTTGIYREKGDTVATQ | binds | –
5 | EcAIII β subunit of variant RDM1-24 (domain or fragment, Escherichia coli, UniProt P37595 179-321, looked up, EcAIII of Escherichia coli, β subunit beginning at Thr179, with the substitutions of RDM1-24; also called RDM1-24 β subunit; source: E. coli BL21 Gold, purified (DEAE-Sepharose, SEC); formed by autocleavage of the precursor) TVGAVALDLDGNLAAATSTGGMTNKLPGAVGSTPLVGAGCYANNASVAVSCTGTGEVFIRALAAYDIAALMDYGGLSLAEACERVVMEKLPALGGSGGLIAIDHEGNVALPFNTEGMYRAWGYAGDTPTTGIYREKGDTVATQ | binds | –
6 | EcAIII β subunit of variant RDM1-12 (domain or fragment, Escherichia coli, UniProt P37595 179-321, looked up, EcAIII of Escherichia coli, β subunit beginning at Thr179, with the substitutions of RDM1-12; also called RDM1-12 β subunit; source: E. coli BL21 Gold, purified (DEAE-Sepharose, SEC); formed by autocleavage of the precursor) TVGAVALDLDGNLAAATSTGGMTNKLPCTVGAAPLVGAGCYANNASVAVSCTGTGEVFIRALAAYDIAALMDYGGLSLAEACERVVMEKLPALGGSGGLIAIDHEGNVALPFNTEGMYRAWGYAGDTPTTGIYREKGDTVATQ | binds | –

More lines, main results first:

Row | binding result [2] | Binder | binding result [1]
7 | binds | EcAIII β subunit of variant RDM1-3 (domain or fragment, Escherichia coli, UniProt P37595 179-321, looked up, EcAIII of Escherichia coli, β subunit beginning at Thr179, with the substitutions of RDM1-3; also called RDM1-3 β subunit; source: E. coli BL21 Gold, purified (DEAE-Sepharose, SEC); formed by autocleavage of the precursor) TVGAVALDLDGNLAAATSTGGMTNKLPHTVGPQPLVGAGCYANNASVAVSCTGTGEVFIRALAAYDIAALMDYGGLSLAEACERVVMEKLPALGGSGGLIAIDHEGNVALPFNTEGMYRAWGYAGDTPTTGIYREKGDTVATQ | –
8 | binds | EcAIII β subunit of variant RDM1-29 (domain or fragment, Escherichia coli, UniProt P37595 179-321, looked up, EcAIII of Escherichia coli, β subunit beginning at Thr179, with the substitutions of RDM1-29; also called RDM1-29 β subunit; source: E. coli BL21 Gold, purified (DEAE-Sepharose, SEC); formed by autocleavage of the precursor) TVGAVALDLDGNLAAATSTGGMTNKLPCSVGLVPLVGAGCYANNASVAVSCTGTGEVFIRALAAYDIAALMDYGGLSLAEACERVVMEKLPALGGSGGLIAIDHEGNVALPFNTEGMYRAWGYAGDTPTTGIYREKGDTVATQ | –
9 | binds | EcAIII β subunit of variant RDM1-37 (domain or fragment, Escherichia coli, UniProt P37595 179-321, looked up, EcAIII of Escherichia coli, β subunit beginning at Thr179, with the substitutions of RDM1-37 (Ser211 kept); also called RDM1-37 β subunit; source: E. coli BL21 Gold, purified (DEAE-Sepharose, SEC); formed by autocleavage of the precursor) TVGAVALDLDGNLAAATSTGGMTNKLPSTVGSSPLVGAGCYANNASVAVSCTGTGEVFIRALAAYDIAALMDYGGLSLAEACERVVMEKLPALGGSGGLIAIDHEGNVALPFNTEGMYRAWGYAGDTPTTGIYREKGDTVATQ | –
